T1: GST-PPARγ fusion protein (immobilized PPARγ) (UniProt P37238 1-505)
T1 construct: also called FST-PPARγ fusion protein; bacterially expressed PPARγ immobilized on beads; not shown: glutathione S-transferase (GST) moiety; printed as 'FST'
T1 sequence (looked up): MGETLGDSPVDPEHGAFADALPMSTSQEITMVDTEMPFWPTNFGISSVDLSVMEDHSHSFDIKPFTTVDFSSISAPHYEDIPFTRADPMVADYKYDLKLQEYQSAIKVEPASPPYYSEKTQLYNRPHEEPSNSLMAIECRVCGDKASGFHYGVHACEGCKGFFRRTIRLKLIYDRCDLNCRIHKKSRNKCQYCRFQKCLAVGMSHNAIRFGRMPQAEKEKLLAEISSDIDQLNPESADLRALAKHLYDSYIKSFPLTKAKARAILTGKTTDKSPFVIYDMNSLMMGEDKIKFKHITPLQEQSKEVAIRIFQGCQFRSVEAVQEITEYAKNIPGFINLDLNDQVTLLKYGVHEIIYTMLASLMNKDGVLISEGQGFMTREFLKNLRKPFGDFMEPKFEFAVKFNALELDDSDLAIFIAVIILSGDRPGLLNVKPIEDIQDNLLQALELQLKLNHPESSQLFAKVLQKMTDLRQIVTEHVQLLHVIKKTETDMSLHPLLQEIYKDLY

T2: full-length mouse PGC-1 (aa 1-797) (mouse, UniProt O70343 1-797, [35S]methionine-labeled in the pull-down assays)
T2 construct: In vitro reticulocyte translation product in the pull-downs; the same full-length protein was expressed from pSV-SPORT in the transcription assays; also called reticulocyte-translated PGC-1
T2 sequence: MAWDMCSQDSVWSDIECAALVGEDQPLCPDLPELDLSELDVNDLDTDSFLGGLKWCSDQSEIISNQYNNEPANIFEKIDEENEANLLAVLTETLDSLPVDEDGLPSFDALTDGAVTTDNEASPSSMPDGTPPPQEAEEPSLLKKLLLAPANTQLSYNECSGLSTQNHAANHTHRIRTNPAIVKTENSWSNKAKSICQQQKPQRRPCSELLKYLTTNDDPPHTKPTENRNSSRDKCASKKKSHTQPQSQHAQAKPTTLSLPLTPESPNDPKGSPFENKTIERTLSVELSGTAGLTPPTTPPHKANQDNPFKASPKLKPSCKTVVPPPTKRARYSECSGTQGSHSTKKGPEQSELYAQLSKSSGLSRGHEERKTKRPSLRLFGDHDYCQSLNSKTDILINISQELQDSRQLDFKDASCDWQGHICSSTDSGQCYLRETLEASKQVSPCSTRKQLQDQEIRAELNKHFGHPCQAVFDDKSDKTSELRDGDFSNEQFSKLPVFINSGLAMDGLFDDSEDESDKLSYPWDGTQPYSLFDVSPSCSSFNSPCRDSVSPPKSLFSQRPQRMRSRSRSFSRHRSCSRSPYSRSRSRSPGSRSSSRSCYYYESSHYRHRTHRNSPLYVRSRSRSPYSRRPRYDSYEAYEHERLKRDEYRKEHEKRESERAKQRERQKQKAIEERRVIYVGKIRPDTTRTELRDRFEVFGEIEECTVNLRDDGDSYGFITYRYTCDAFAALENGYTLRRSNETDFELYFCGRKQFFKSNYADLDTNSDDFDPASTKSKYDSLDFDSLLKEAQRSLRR


What was measured:
[1] = biological target: T1, GST-PPARγ fusion protein (immobilized …); assay: pull-down of in vitro-translated 35S-labeled PGC-1 deletion with immobilized GST-PPARγ
Excerpt: These were then translated into vitro with an [³⁵S]methionine-label. One microliter of each in vitro translation reaction was resolved by SDS-PAGE and autoradigraphed.

[2] = biological target: T2, full-length mouse PGC-1 (aa 1-797); assay: pull-down of in vitro-translated PGC-1 with GST-PPARγ deletion
Excerpt: Most of the nuclear hormone receptor coactivators identified to date interact with the C-terminal AF-2 domain, which is responsible for ligand-dependent transcriptional activation.

Row | binding result [1] | binding result [2] | Binder
1 | no binding |  | PGC-1 1-292 (other, [35S]methionine-labeled, In vitro translated; still contains the LXXLL motif (aa 142-146)) MAWDMCSQDSVWSDIECAALVGEDQPLCPDLPELDLSELDVNDLDTDSFLGGLKWCSDQSEIISNQYNNEPANIFEKIDEENEANLLAVLTETLDSLPVDEDGLPSFDALTDGAVTTDNEASPSSMPDGTPPPQEAEEPSLLKKLLLAPANTQLSYNECSGLSTQNHAANHTHRIRTNPAIVKTENSWSNKAKSICQQQKPQRRPCSELLKYLTTNDDPPHTKPTENRNSSRDKCASKKKSHTQPQSQHAQAKPTTLSLPLTPESPNDPKGSPFENKTIERTLSVELSGTAG
2 |  | no binding | GST fusion of PPARγ 228-505 (receptor, mouse, UniProt P37238 228-505, looked up, not shown: glutathione S-transferase (GST) moiety of pGEX 5X2) DIDQLNPESADLRALAKHLYDSYIKSFPLTKAKARAILTGKTTDKSPFVIYDMNSLMMGEDKIKFKHITPLQEQSKEVAIRIFQGCQFRSVEAVQEITEYAKNIPGFINLDLNDQVTLLKYGVHEIIYTMLASLMNKDGVLISEGQGFMTREFLKNLRKPFGDFMEPKFEFAVKFNALELDDSDLAIFIAVIILSGDRPGLLNVKPIEDIQDNLLQALELQLKLNHPESSQLFAKVLQKMTDLRQIVTEHVQLLHVIKKTETDMSLHPLLQEIYKDLY

Source: US20030229204A1 (Dana-Farber, published 2003)
